We go through 1 molecule from US7807396B2, “Insulin degrading enzyme assays for treatment of alzheimer's disease” (University of Kentucky Research Foundation, priority 2000, dated 2010).

The target in this data set is T1, β-endorphin (Homo sapiens, UniProt P01189).
T1 construct: Human β-endorphin1-31; purchased National Institute on Drug Abuse drug supply system
T1 sequence (P01189 237-267): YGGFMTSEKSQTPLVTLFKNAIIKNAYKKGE
Description: Insulysin activity determination, disappearance of β-endorphin by HPLC. To be noted: 30 μM β-endorphin, 37° C. The class given is biochemical. The method, then:
Materials. […] Solutions were prepared by dissolving the peptide in dimethylsulfoxide (DMSO) to give a stock concentration of 200 μM. The peptide stock was lyophilized and stored at −80° C. until use. The aggregation state of Aβ peptide stock solutions was checked by electron microscopy (Ray et al. (2000) Brain Res 853:344-351) and found to be predominantly, if not exclusively, monomeric. For the in vitro reactions with insulysin, a final concentration of 25 μM Aβ1-40 was obtained after bringing the lyophilized peptide into solution with double distilled water. […] Human β-endorphin1-31, obtained from the National Institute on Drug Abuse drug supply system, was dissolved in water to give a stock solution of 300 μM. Trifluoroacetic acid (Sigma Biochemicals, St. Louis, Mo.) was diluted into water to produce a 5% working solution.
Insulysin activity was assayed by measuring the disappearance of β-endorphin by isocratic reverse phase HPLC (Safavi et al. (1996) Biochemistry 1996 35:14318-14325). A 100 μl reaction mixture containing 40 mM potassium phosphate buffer, pH 7.2, 30 μM β-endorphin, and enzyme was incubated for 15 minutes at 37° C. […] The β-endorphin peak was detected by absorbance at 214 nm using a Waters 484 detector. The reaction was quantitated by measuring the decrease in the β-endorphin peak area.

B1: enzyme purified from a thymoma cell line, EL-4: insulysin enzyme purified from a thymoma cell line, EL-4, used for comparison of specific activity (protein, UniProt Q9JHR7 1-1019, looked up)
Insulin-degrading enzyme: MRNGLVWLLHPALPGTLRSILGARPPPAKRLCGFPKQTYSTMSNPAIQRIEDQIVKSPEDKREYRGLELANGIKVLLISDPTTDKSSAALDVHIGSLSDPPNIPGLSHFCEHMLFLGTKKYPKENEYSQFLSEHAGSSNAFTSGEHTNYYFDVSHEHLEGALDRFAQFFLCPLLDASCKDREVNAVDSEHEKNVMNDAWRLFQLEKATGNPKHPFSKFGTGNKYTLETRPNQEGIDVREELLKFHSTYYSSNLMAICVLGRESLDDLTNLVVKLFSEVENKNVPLPEFPEHPFQEEHLRQLYKIVPIKDIRNLYVTFPIPDLQQYYKSNPGYYLGHLIGHEGPGSLLSELKSKGWVNTLVGGQKEGARGFMFFIINVDLTEEGLLHVEDIILHMFQYIQKLRAEGPQEWVFQECKDLNAVAFRFKDKERPRGYTSKIAGKLHYYPLNGVLTAEYLLEEFRPDLIDMVLDKLRPENVRVAIVSKSFEGKTDRTEQWYGTQYKQEAIPEDVIQKWQNADLNGKFKLPTKNEFIPTNFEILSLEKDATPYPALIKDTAMSKLWFKQDDKFFLPKACLNFEFFSPFAYVDPLHCNMAYLYLELLKDSLNEYAYAAELAGLSYDLQNTIYGMYLSVKRYNDKQPILLKKITEKMATFEIDKKRFEIIKEAYMRSLNNFRAEQPHQHAMYYLRLLMTEVAWTKDELKEALDDVTLPRLKAFIPQLLSRLHIEALLHGNITKQAALGVMQMVEDTLIEHAHTKPLLPSQLVRYREVQLPDRGWFVYQQRNEVHNNCGIEIYYQTDMQSTSENMFLELFCQIISEPCFNTLRTKEQLGYIVFSGPRRANGIQGLRFIIQSEKPPHYLESRVEAFLITMEKAIEDMTEEAFQKHIQALAIRRLDKPKKLSAECAKYWGEIISQQYNYDRDNIEVAYLKTLTKDDIIRFYQEMLAVDAPRRHKVSVHVLAREMDSCPVVGEFPSQNDINLSEAPPLPQPEVIHNMTEFKRGLPLFPLVKPHINFMAAKL
Take B1: the specific activity amounted to 3.3 μmols/min/mg.
